According to the RNAGym collection of RNA variant scans (doi:10.1073/pnas.2313332121):

B1: TPR t1 (parent)
chain: GACCAAUCUGCCCUCAGAGCUCGAGAACAUCUUCGGAUGCAGAGGAGGCAGGCUUCGGUGGCGCGAUAGCGCCAACGUCCUCAACCUCCAAUGCAUCCCACCACAUGAUGAUGCCUGAAGAGCCUUGGUUUUUUG

Variants of: B1
Experiment: polymerase ribozyme fitness, log enrichment relative to wild type (log ratio); higher = more active; in vitro selection for triplet polymerase activity
Summary of the method: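 Mutant libraries of each subunit of a heterodimeric triplet polymerase ribozyme were built by PCR and transcribed. Each library went through one round of in vitro selection in triplicate: annealing with biotinylated primer, partner subunit and triplets, frozen incubation at −7 °C, gel excision of extended constructs, streptavidin-bead capture and RT-PCR. Input and output libraries were Illumina-sequenced; only genotypes with ≥10 input reads and ≥1 read per output were kept. Fitness is log2(genotype enrichment/wild-type enrichment), using inverse-variance-weighted replicate averages.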

Row | Variant | polymerase ribozyme fitness (log ratio)
1 | GACCAAUCUGCCCUCAGAGCUCGAGAACAUCUUCGGAUGCAGAGGAGGCAAGCUUCGGUGGCGCGAUAGCGCCAACGUCCUCAACCUCCAAUGCAUCCCACCACAUGAUGAUGCCUGAAGUGCCUUGGUUUUUUG [G51A A121U] | -0.44
2 | GACCAAUCUGCCCUCAGAGCUCGAGAACAUCUUCGGAUGCAGAGGAGGCAAGAUUCGGUGACGCGAUAGCGCUAACGUCCUCAACCUCCAAUGCAUCCCACCACAUGAUGAUGCCUGAAGAGCCUUGGUUUUAUG [G51A C53A G61A C73U U133A] | -2.11
3 | GACCAAUCUGCCCUCAGAGCUCGAGAACAUCUUCGGAUGCAGAGGAGGCAAGGUUCGGUGGCGCGAUAGCGCCAACGUCCUCAACCUCCAAUGCAUCCCACCACAUGAUGAUGCCUGAAGAGCCUUGGUUUUUUG [G51A C53G] | -2.12
4 | GACCAAUCUGCCCUCAGAGCUCGAGAACAUCUUCGGAUGCAGAGGAGGCAAGGUUCGGUGGCGCGAUAGCGCCAACGUCCUCAACCUCCAAUGCAUCCCACCACAUGAUGAUGCCUCAAGAGCCUUCGUUUUUUG [G51A C53G G117C G127C] | -7.73
5 | GACCAAUCUGCCCUCAGAGCUCGAGAACAUCUUCGGAUGCAGAGGAGGCAAGCUUUGGUGGCGCGAUAGCGCCAACGUCCUCAGCCUCCAAUGCGACCCACCACAUGAUGAUGCCUGAAGAGCCUUGGUUUUUUG [G51A C56U A84G A95G U96A] | -5.06
6 | GACCAAUCUGCCCUCAGAGCUCGAGAACAUCUUCGGAUGCAGAGGAGGCAAGCUUUGGUGGCGCGAUAGCGCCAACGUCCUCAUCCUCCAAUGCAUCCUACCACAUGAUGAUGCCUGAAGUGCCUUGGUUUUUUG [G51A C56U A84U C99U A121U] | -5.26
7 | GACCAAUCUGCCCUCAGAGCUCGAGAACAUCUUCGGAUGCAGAGGAGGCAAGCUUUGGUGGCGCGAUAGCGCCAACGUCCUCAACCUCCAAUUCAUCCCACCACAUGAUGAUGCCUGAAGAGCCUUGGUUUUUUG [G51A C56U G93U] | -3.4
8 | GACCAAUCUGCCCUCAGAGCUCGAGAACAUCUUCGGAUGCAGAGGAGGCAAGCUUCGGUGGAGCGAUAGCGCCAACGUCCUCAACCUCCAAUGCAUCCCACCACAUGAUGAUGCCGGAAGAGCAUUGGUUUUUUG [G51A C62A U116G C124A] | -5.64
9 | GACCAAUCUGCCCUCAGAGCUCGAGAACAUCUUCGGAUGCAGAGGAGGCAAGCUUCGGUGGUGCGAUAGCGCCAACGUCCUCAACCUCCAAUGCAUCCCACCACAUGAUGAUACCUGAAGAGCCUUGGUUUUUUG [G51A C62U G113A] | -3.5
10 | GACCAAUCUGCCCUCAGAGCUCGAGAACAUCUUCGGAUGCAGAGGAGGCAAGCUUCGGUGGCGCGAUAGCGGCAACGUUCUCAACCUCCAAUGCAUCCCACCACAUGAUGAUGCCUGAAGAGCCUUGGUUUUUUG [G51A C72G C79U] | -3.08
11 | GACCAAUCUGCCCUCAGAGCUCGAGAACAUCUUCGGAUGCAGAGGAGGCAAGCUUCGGUGGCGCGAUAGCGGCAACGUCCUCAACCUCCAAUGCAACCCACCACAUGAUGAUGCCUGAAGAGCCUUGGUUUUUUG [G51A C72G U96A] | -3.94
12 | GACCAAUCUGCCCUCAGAGCUCGAGAACAUCUUCGGAUGCAGAGGAGGCAAGCUUCGGUGGCGCGAUAGCGCGAACGUCCUCAACCUCCAAUGCAUCCCACCACAUGAUGAUGCCUGAAGAGCUUUGGUUUUUUG [G51A C73G C124U] | -1.14
13 | GACCAAUCUGCCCUCAGAGCUCGAGAACAUCUUCGGAUGCAGAGGAGGCAAGCUUCGGUGGCGCGAUAGCGCCAACGUACUCAACCUCCAAUGCAUCCCACCACAUGAUGAUACCUGAAGAGCCUUGGUUUUUUG [G51A C79A G113A] | -3.64
14 | GACCAAUCUGCCCUCAGAGCUCGAGAACAUCUUCGGAUGCAGAGGAGGCAAGCUUCGGUGGCGCGAUAGCGCCAACGUGGUCACCCUCCAAUGCAUCCCACCACAUGAUGAUGCCUGAAGAGCGUUGCUUUUUUG [G51A C79G C80G A84C C124G G128C] | -7.76
15 | GACCAAUCUGCCCUCAGAGCUCGAGAACAUCUUCGGAUGCAGAGGAGGCAAGCUUCGGUGGCGCGAUAGCGCCAACGUCCUUAACCUCCAAUGCAUCCCACCACAUGAUGAUGCCUGAAGAGCUUUGGUUUUUUG [G51A C82U C124U] | 0.555
16 | GACCAAUCUGCCCUCAGAGCUCGAGAACAUCUUCGGAUGCAGAGGAGGCAAGCUUCGGUGGCGCGAUAGCGCCAACGUCCUCAACAUCCAAUGCAUCCCACCACAUGAUGAUGCCUGAAGAGCCUUGGUUUUUUG [G51A C86A] | -2.78
17 | GACCAAUCUGCCCUCAGAGCUCGAGAACAUCUUCGGAUGCAGAGGAGGCAAGCUUCGGUGGCGCGAUAGCGCCAACGUCCUCAACUUCCAAUGCAUCCCACCACAUGAUGAUGCCUGAAGAGCCUUGGUUUUUUG [G51A C86U] | -3.18
18 | GACCAAUCUGCCCUCAGAGCUCGAGAACAUCUUCGGAUGCAGAGGAGGCAAGCUUCGGUGGCGCGAUAGCGCCAACGUCCUCAACCUCUAAUGCAUCCCACCACAUGAUGAUGCCUGAAGAGCCUUGGUAUUUUG [G51A C89U U130A] | -3.01
19 | GACCAAUCUGCCCUCAGAGCUCGAGAACAUCUUCGGAUGCAGAGGAGGCAAGCUUCUGUGGCGCGAUAGCGCCAACGUCCUCGUCCUCCAAUGCAUCCCACCACGUGAUGAUGCCUGAAGAGCCUUGGUGUUUUG [G51A G57U A83G A84U A105G U130G] | -6.12
20 | GACCAAUCUGCCCUCAGAGCUCGAGAACAUCUUCGGAUGCAGAGGAGGCAAGCUUCGGUAGCGCGAUAGCGCCAACGUCCUCAGCCUCCAAUGCAUCCCACCACAUGAUGAUGCCUGAAUAGCCUUGGUUUUUUG [G51A G60A A84G G120U] | -2.9
21 | GACCAAUCUGCCCUCAGAGCUCGAGAACAUCUUCGGAUGCAGAGGAGGCAAGCUUCGGUAGCGCGAUAGCGCCAACGUCCUCAACCUCCAAUGCAUCCCACCACAUGAUGAUGCCUGAAGAGCGUUGGUUUUUUG [G51A G60A C124G] | -1.16

Row | Variant | polymerase ribozyme fitness (log ratio)
22 | GACCAAUCUGCCCUCAGAGCUCGAGAACAUCUUCGGAUGCAGAGGAGGCAAGCUUCGGUGGCGCGAUAGCACCAACGUCCUCAACCUCCAAUGCAUCCCACCACAUGAUGAUGCCUGAAGAGCCUUGGUUUUUUG [G51A G71A] | -4.53
23 | GACCAAUCUGCCCUCAGAGCUCGAGAACAUCUUCGGAUGCAGAGGAGGCAAGCUUCGGUGGCGCGAUAGCGCCAACGUCCUCAACCUCCAAUACAUCCCACCACAUGAUGAUGCCUGAAGAGCCUUGGUUUUUUG [G51A G93A] | -3.45
24 | GACCAAUCUGCCCUCAGAGCUCGAGAACAUCUUCGGAUGCAGAGGAGGCAAGCUUCGGUGGCGCGAUAGCGCCAACGUCCUCAACCUCCAAUUCAUCCCACCACAUGAUGAUGCCUGAAGAGCCUUGGUUUUUUG [G51A G93U] | -4.23
25 | GACCAAUCUGCCCUCAGAGCUCGAGAACAUCUUCGGAUGCAGAGGAGGCAAGCUUCGGUGGCGCGAUAGCGCCAACGUCCUCAACCUCCAAUGCAUCCCACCACAUGAUGAUGCCUGAAGAGCCUUAGUUUUUUG [G51A G127A] | -3.6
26 | GACCAAUCUGCCCUCAGAGCUCGAGAACAUCUUCGGAUGCAGAGGAGGCAAGCUUCGGUGGCGCGAUAGCGCCAACGUCCUCAACCUCCAAUGCAUCCCACCACAUGAUGAAGCCUGAAGAGCCUUGGUUUUUUG [G51A U112A] | -1.47
27 | GACCAAUCUGCCCUCAGAGCUCGAGAACAUCUUCGGAUGCAGAGGAGGCAAGCUUCGGUGGCGCGAUAGCGCCAACGUCCUCAACCUCCAAUGCAUCCCACCACAUGAUGAUGCCUGAAGAGCCUUGGUUAUUUG [G51A U131A] | -2.2
28 | GACCAAUCUGCCCUCAGAGCUCGAGAACAUCUUCGGAUGCAGAGGAGGCACGCUUCGGUGGCGCGAUAGCGCCAACGUCCUCAACCUCCAAUGCAUCCCACCACAUGAUGUUGCCUGAAGAGCCUUGGUUUUUUG [G51C A111U] | -6.8
29 | GACCAAUCUGCCCUCAGAGCUCGAGAACAUCUUCGGAUGCAGAGGAGGCACGCUUAGGUGGCGCGAUAGCGCCAACUACCUCAACCUCCAAUGCAUCCCACCACAUGAUGAUGCCUGAAGAGCCUUGGUUUUUUG [G51C C56A G77U U78A] | -3.51
30 | GACCAAUCUGCCCUCAGAGCUCGAGAACAUCUUCGGAUGCAGAGGAGGCACGCUUCGGUGGUGCGAUAGCGCCAACGUCCUCAACCUCCAAUGCAUCCCACCACAUGAUGACGCCUGAAGAGCCUUGGUUUUUUG [G51C C62U U112C] | -2.27
31 | GACCAAUCUGCCCUCAGAGCUCGAGAACAUCUUCGGAUGCAGAGGAGGCACGCUUCGGUGGCGCGAUAGCGACAACGUCCUCAACCUCCAAUGCAUCCCACCACAUGAUGAUGCCUGAAGAGCCUUGGGUUUUUG [G51C C72A U129G] | -4.58
32 | GACCAAUCUGCCCUCAGAGCUCGAGAACAUCUUCGGAUGCAGAGGAGGCACGCUUCGGUGGCGCGAUAGCGCCAACGUACUCAACCUCCAAUGCAUCCCACCACAUGAUGAUGCCUGAAGAGCCUUGGUUUUUUG [G51C C79A] | -4.29
33 | GACCAAUCUGCCCUCAGAGCUCGAGAACAUCUUCGGAUGCAGAGGAGGCACGCUUCGGUGGCGCGAUAGCGCCAACGUCGUCAACCUCCAAUGCAUCCCACCACAUGAUGAUGCCUGAAGAGCCUUGGUUUUUUU [G51C C80G G135U] | -1.27
34 | GACCAAUCUGCCCUCAGAGCUCGAGAACAUCUUCGGAUGCAGAGGAGGCACGCUUCGGUGGCGCGAUAGCGCCAACGUCCUCAAGCUCCAAUGCAUCCCACCACAUGAUGAUGCCUGAAGAGCCUUGGUUUUUUG [G51C C85G] | -4.34
35 | GACCAAUCUGCCCUCAGAGCUCGAGAACAUCUUCGGAUGCAGAGGAGGCACGCUUCGAUGGCGCGAUAGCGCCAACGUCCUCAACCUCCAAUGCAUCCCCCCACAUGAUGAUGCCUGAAGAGCUUUGGUUUUUUG [G51C G58A A100C C124U] | -4.88
36 | GACCAAUCUGCCCUCAGAGCUCGAGAACAUCUUCGGAUGCAGAGGAGGCACGCUUCGGUGUCGAGAUAGCGCCAACGUACUCAACCUCCAAUGCAUCCCACCACAUGAUGAUGCCUAAAGAGCCUUGGUUUUGUG [G51C G61U C64A C79A G117A U133G] | -6.91
37 | GACCAAUCUGCCCUCAGAGCUCGAGAACAUCUUCGGAUGCAGAGGAGGCACGCUUCGGUGUCGCGAUAGCGCCAACGUCCUCAACCUCCAAUGCAUCCCACCACAUGAUGAUGUCUGAAGAGCCUUGGUUUUUUG [G51C G61U C114U] | -6.08
38 | GACCAAUCUGCCCUCAGAGCUCGAGAACAUCUUCGGAUGCAGAGGAGGCACGCUUCGGUGGCACGAUAGCGCCAACGCCCUCAACCUCCAAUGCAUCCCACCACAUGAUGCUGCCUGAAGAGCCUUGGUUUUUUG [G51C G63A U78C A111C] | -6.17
39 | GACCAAUCUGCCCUCAGAGCUCGAGAACAUCUUCGGAUGCAGAGGAGGCACGCUUCGGUGGCGCGAUAGCGCCAACGUCCUCAACCACCAAUGCAUCCCACCACAUGAUGAUGCCUGAAAAGCCUUGGUUUUUUG [G51C U87A G120A] | -3.27
40 | GACCAAUCUGCCCUCAGAGCUCGAGAACAUCUUCGGAUGCAGAGGAGGCACGCUUCGGUGGCGCGAUAGCGCCAACGUCCUCAACCUCCAAUGCAUCCCACCACAUGAUGAUGCCUGAAGAGCCUUGGCUUUUUG [G51C U129C] | -3.96
41 | GACCAAUCUGCCCUCAGAGCUCGAGAACAUCUUCGGAUGCAGAGGAGGCAUGCUUCGGUGGCGCGGUAGCGCCAACGUCCUCAACCUCCAAUGCAUCCCACCACAUGAUGAUGCCUGAAGAGCCUUGGUUUUUUG [G51U A66G] | -4.49
42 | GACCAAUCUGCCCUCAGAGCUCGAGAACAUCUUCGGAUGCAGAGGAGGCAUGCUUCGGUGGCGCGAUAGCGCCAACGUCCUCAACCUCCAGUGCAUCCCACCACAUGAUGAUGCCUGAAGAGCCUUGGUUUUUUG [G51U A91G] | -5.12
